Data from patent US20240197919A1 (CALIFORNIA INSTITUTE OF TECHNOLOGY, published 2024).
Residue numbers refer to the chain shown, from its start.

T1: Ly6a-Fc fusion protein (murine, UniProt P05533 27-112)
T1 construct: Captured on a protein A sensor chip for SPR; also called Ly6a-Fc protein; not shown: Fc part
T1 sequence: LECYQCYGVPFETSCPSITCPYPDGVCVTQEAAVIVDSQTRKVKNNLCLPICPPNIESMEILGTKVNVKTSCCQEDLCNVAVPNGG

B1: AAV-X1 (other)
chain: MAADGYLPDWLEDNLSEGIREWWALKPGAPQPKANQQHQDNARGLVLPGYKYLGPGNGLDKGEPVNAADAAALEHDKAYDQQLKAGDNPYLKYNHADAEFQERLKEDTSFGGNLGRAVFQAKKRLLEPLGLVEEAAKTAPGKKRPVEQSPQEPDSSAGIGKSGAQPAKKRLNFGQTGDTESVPDPQPIGEPPAAPSGVGSLTMASGGGAPVADNNEGADGVGSSSGNWHCDSQWLGDRVITTSTRTWALPTYNNHLYKQISNSTSGGSSNDNAYFGYSTPWGYFDFNRFHCHFSPRDWQRLINNNWGFRPKRLNFKLFNIQVKEVTDNNGVKTIANNLTSTVQVFTDSDYQLPYVLGSAHEGCLPPFPADVFMIPQYGYLTLNDGSQAVGRSSFYCLEYFPSQMLRTGNNFQFSYEFENVPFHSSYAHSQSLDRLMNPLIDQYLYYLSRTINGSGQNQQTLKFSVAGPSNMAVQGRNYIPGPSYRQQRVSTTVTQNNNSEFAWPGASSWALNGRNSLMNPGPAMASHKEGEDRFFPLSGSLIFGKQGTGRDNVDADKVMITNEEEIKTTNPVATESYGQVATNHQSAQGNNTRSVAQAQTGWVQNQGILPGMVWQDRDVYLQGPIWAKIPHTDGNFHPSPLMGGFGMKHPPPQILIKNTPVPADPPTAFNKDKLNSFITQYSTGQVSVEIEWELQKENSKRWNPEIQYTSNYYKSNNVEFAVNTEGVYSEPRPIGTRYLTRNL
notes: Tested as an assembled rAAV particle; also called AAV-CAP.X1
B2: AAV-X1.1 (other)
chain: B1 chain with N452D, S454A, G455A, Q456T, N457K, Q458N
notes: Tested as an assembled rAAV particle; also called AAV9-X1.1

Target: T1, Ly6a-Fc fusion protein
Assay: SPR, Ly6a-Fc captured on protein A chip, rAAV injected as analyte

Binder | binding result
B1 | no binding
B2 | no binding
